US20260008815A1, “CYCLIC PEPTIDE OR SALT THEREOF, AND USES THEREOF” (FUJIFILM Corporation, priority 2023, published 2026)
Bridge positions count the residues as written; N and C are the ends. Ends that are not written are not given here. COCH2 = acetyl group that carries the bridge

T1: FGFR1 Protein, Human, Recombinant (His Tag) (Sino Biological, 10616-H08H) (human, UniProt P11362 22-376)
T1 construct: bought; not shown: His tag
T1 sequence (looked up): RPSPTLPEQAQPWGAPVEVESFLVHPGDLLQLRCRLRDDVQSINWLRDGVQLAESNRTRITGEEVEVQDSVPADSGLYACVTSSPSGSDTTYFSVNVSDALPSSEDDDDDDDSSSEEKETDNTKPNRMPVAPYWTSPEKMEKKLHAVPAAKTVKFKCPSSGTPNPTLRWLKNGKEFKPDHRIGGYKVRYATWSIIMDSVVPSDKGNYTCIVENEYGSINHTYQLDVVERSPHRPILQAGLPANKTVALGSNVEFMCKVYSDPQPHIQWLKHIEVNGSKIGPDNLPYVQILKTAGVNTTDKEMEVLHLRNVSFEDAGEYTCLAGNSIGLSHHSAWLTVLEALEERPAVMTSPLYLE

T2: FGFR4 Protein, Human, Recombinant (His Tag) (Sino Biological, 10538-H08H) (human, UniProt P22455 22-369)
T2 construct: bought; not shown: His tag
T2 sequence (looked up): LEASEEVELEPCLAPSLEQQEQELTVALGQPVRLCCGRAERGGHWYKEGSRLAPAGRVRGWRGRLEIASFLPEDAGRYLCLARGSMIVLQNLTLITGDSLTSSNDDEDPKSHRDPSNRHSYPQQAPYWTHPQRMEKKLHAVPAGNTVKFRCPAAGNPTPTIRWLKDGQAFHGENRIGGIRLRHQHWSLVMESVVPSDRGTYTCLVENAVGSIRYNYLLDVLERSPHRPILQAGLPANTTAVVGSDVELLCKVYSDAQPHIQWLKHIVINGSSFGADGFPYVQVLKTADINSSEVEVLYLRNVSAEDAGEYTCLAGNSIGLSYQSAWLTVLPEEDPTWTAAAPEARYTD

T3: FGFR3 Protein, Human, Recombinant (ECD, His Tag) (Sino Biological, 16044-H08H) (human, UniProt P22607 23-375)
T3 construct: extracellular domain; bought; not shown: His tag
T3 sequence (looked up): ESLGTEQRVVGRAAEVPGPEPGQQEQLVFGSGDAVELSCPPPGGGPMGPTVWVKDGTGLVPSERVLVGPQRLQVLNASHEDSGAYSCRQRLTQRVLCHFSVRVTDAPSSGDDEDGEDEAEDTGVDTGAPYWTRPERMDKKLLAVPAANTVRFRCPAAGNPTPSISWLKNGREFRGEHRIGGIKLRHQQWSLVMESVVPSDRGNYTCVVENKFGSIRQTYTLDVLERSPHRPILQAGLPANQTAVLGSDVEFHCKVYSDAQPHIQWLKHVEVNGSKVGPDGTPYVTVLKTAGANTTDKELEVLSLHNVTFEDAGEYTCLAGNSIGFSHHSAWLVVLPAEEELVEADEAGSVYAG


Assays:
bovine myoblasts = assay: Bovine myoblast proliferation-promoting effect; type: cell-based, Japanese Black cattle; conditions: of 30 ng/mL bFGF (=100, negative control =0); 0.03 to 10 nmol/L complex, 4 days
Procedure: The bovine cells (myoblasts) proliferation-promoting effect of the cyclic peptide complex was evaluated.
Bovine myoblasts were separated from bovine muscle tissue by the following method. First, muscle tissue of Japanese Black cattle was finely chopped in HBSS (−) (phenol red-free) (FUJIFILM Wako Pure Chemical Corporation, 085-09355), and then pronase from Streptomyces griseus (Sigma-Aldrich, 10165921001) was added thereto to a final concentration of 1 mg/mL, and the mixture was allowed to stand at 37° C. for 1 hour. After allowing to stand, HBSS containing 10% FBS was added thereto, and the cells were acquired by centrifugation. The acquired cells were suspended in D-MEM (high glucose) (containing L-glutamine and phenol red) (FUJIFILM Wako Pure Chemical Corporation, 044-29765) containing 10% final concentration of bovine serum and 30 ng/mL bFGF. Suspended cells were cultured in a culture flask coated with an iMatrix-511 solution (FUJIFILM Wako Pure Chemical Corporation, 381-07363) at 0.55 μg/cm^2. […]
The evaluation of the proliferation-promoting effect on bovine myoblasts was performed by the following method. […] The number of viable cells was calculated from the imaging data and normalized by setting the number of viable cells in the well to which 30 ng/mL bFGF was added to 100, and setting the number of viable cells in the negative control well to 0.

[1] = molecular target: T1, FGFR1 Protein, Human, Recombinant (His …); assay: SPR, 1 umol/L FGFR over immobilized peptide
Procedure: (§1) Next, 70 μL of a mixed aqueous solution of 0.2 mol/L 1-(3-dimethylaminopropyl)-3-ethylcarbodiimide (EDC) and 0.05 mol/L N-hydroxysuccinimide (NHS) was added to activate the sensor chip. Then, a cyclic peptide prepared to 2 mg/mL in HBS-EP buffer was added thereto to perform immobilization at about 200 RU. Thereafter, the blocking treatment was performed with an ethanolamine solution. In addition, in another flow channel of the same sensor chip, blocking treatment was performed immediately after activation without immobilizing FGFR.
(§2) After various FGFRs (FGFR1 Protein, Human, Recombinant (His Tag) (Sino Biological, 10616-H08H), FGFR2 Protein, Human, Recombinant (His Tag) (Sino Biological, 10824-H08H), FGFR3 Protein, Human, Recombinant (ECD, His Tag) (Sino Biological, 16044-H08H), FGFR4 Protein, Human, Recombinant (His Tag) (Sino Biological, 10538-H08H)) diluted with HBS-EP to 1 μmol/L at 25° C. was added to each flow channel of the cyclic peptide-immobilized sensor chip prepared above, for 10 minutes, HBS-EP was allowed to flow as a running buffer for 30 minutes, and the binding of various FGFRs to the cyclic peptide was measured. Thereafter, a regeneration treatment of removing the bound FGFR was performed by repeating the flow of a regeneration liquid in which sodium chloride (final concentration: 0.4 mol/L) and a sodium dodecyl sulfate aqueous solution (mixed concentration: 1%, final concentration: 0.2%) were dissolved in Glysine 1.5 (Cytiva, BR100354) for 1 minute in each flow channel twice. The binding amount of the cyclic peptide was evaluated from the difference between the measured value of Biacore-T200 in the flow channel in which the cyclic peptide was immobilized and the measured value of Biacore-T200 in the flow channel in which the cyclic peptide was not immobilized, in a case where 1 μmol/L FGFR was allowed to flow.
(§3) The binding amount of FGFR evaluated above was normalized to the binding amount of FGFR molecules per one molecule of the cyclic peptide using the molecular weights of the cyclic peptide and FGFR, and the binding affinity to FGFR was evaluated according to the following evaluation criteria. The evaluation result preferably satisfies the evaluation criteria A, B, or C.

[2] = molecular target: T2, FGFR4 Protein, Human, Recombinant (His …); assay: SPR, 1 umol/L FGFR over immobilized peptide
Procedure: as §1, §2, §3

[3] = molecular target: T3, FGFR3 Protein, Human, Recombinant (ECD, …); assay: SPR, 1 umol/L FGFR over immobilized peptide
Procedure: as §1, §2, §3

[4] = molecular target: T4, FGFR2 Protein, Human, Recombinant (His Tag) (Sino Biological, 10824-H08H) (human, UniProt P21802 22-377); assay: SPR, 1 umol/L FGFR over immobilized peptide
T4 construct: bought; not shown: His tag
Procedure: as §1, §2, §3

[5] = molecular target: T5, Recombinant Human FGFR2 alpha (IIIc) Fc Chimera Protein, CF (R&D systems, 712-FR-050) (human, UniProt P21802 22-377); assay: SPR, 10 nmol/L peptide over immobilized FGFR2-Fc
T5 construct: bought; not shown: Fc part of the chimera
Procedure: A CM5 sensor chip (Cytiva, 29149603) was set in Biacore-T200 (manufactured by Cytiva) which is a surface plasmon resonance device, and an HBS-EP buffer (Cytiva, BR100826) was added as a running buffer at a flow rate of 10 μL/min to equilibrate the flow channel. Next, 70 μL of a mixed aqueous solution of 0.2 mol/L 1-(3-dimethylaminopropyl)-3-ethylcarbodiimide (EDC) and 0.05 mol/L N-hydroxysuccinimide (NHS) was added to activate the sensor chip. Then, Recombinant Human FGFR2 alpha (IIIc) Fc Chimera Protein CF (R&D systems, 712-FR-050) prepared at 50 nmol/L in an Acetate 4.5 buffer (Cytiva, BR100350) was added thereto to perform immobilization at about 5000 RU. Thereafter, the blocking treatment was performed with an ethanolamine solution. In addition, in another flow channel of the same sensor chip, blocking treatment was performed immediately after activation without immobilizing FGFR.
A cyclic peptide diluted to 10 nmol/L using HBS-EP was added to each flow channel of the FGFR-immobilized sensor chip produced above at 25° C. for 10 minutes, then HBS-EP was allowed to flow as a running buffer for 30 minutes, and the binding of the cyclic peptide to FGFR was measured. Thereafter, a regeneration treatment of removing the bound cyclic peptide was performed by repeating the flow of a regeneration liquid in which sodium chloride powder was dissolved in Glysine 1.5 (Cytiva, BR100354) to a final concentration of 0.15 mol/L for 1 minute in each flow channel twice. The binding amount of the cyclic peptide was evaluated from the difference between the measured value of Biacore-T200 in the flow channel in which FGFR was immobilized and the measured value of Biacore-T200 in the flow channel in which FGFR was not immobilated, in a case where a 10 nmol/L cyclic peptide was allowed to flow.

T5 sequence (P21802 22-377, change not shown): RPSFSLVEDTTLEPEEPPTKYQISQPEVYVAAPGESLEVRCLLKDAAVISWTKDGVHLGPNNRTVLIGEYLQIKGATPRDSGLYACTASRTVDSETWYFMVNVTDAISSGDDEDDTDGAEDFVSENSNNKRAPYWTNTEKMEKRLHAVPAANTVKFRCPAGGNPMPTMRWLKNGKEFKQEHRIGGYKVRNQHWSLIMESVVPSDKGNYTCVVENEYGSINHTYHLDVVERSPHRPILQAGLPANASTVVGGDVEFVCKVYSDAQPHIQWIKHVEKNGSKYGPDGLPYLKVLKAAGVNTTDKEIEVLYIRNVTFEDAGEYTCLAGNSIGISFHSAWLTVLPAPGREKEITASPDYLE
T4 sequence (P21802 22-377 limits assumed): as the sequence (P21802 22-377, change not shown) above

binding amount (SPR, FGFR molecules bound per cyclic peptide molecule) [1]	binding amount (SPR, FGFR molecules bound per cyclic peptide molecule) [2]	binding amount (SPR, FGFR molecules bound per cyclic peptide molecule) [3]	binding amount (SPR, FGFR molecules bound per cyclic peptide molecule) [4]	binding amount (SPR, cyclic peptide molecules bound per FGFR molecule at 10 nmol/L peptide) [5]	Molecule	bovine myoblast proliferation action (bovine myoblasts)
					Q-(C)-PQNFINPVQWRYFQHY-(K(acetyl))-NK (QCPQNFINPVQWRYFQHYK(COCH2)NKQCPQNFINPVQWRYFQHYK(COCH2)NK; thioether 2-19, 23-40; not fully specified (N-terminus, bridges); also: Bis-NHS-PEG9 crosslink, dimer of two 21-mers) [SEQ ID NO: 458, cyclic peptide complex; N-terminal acetylation, crosslinking between side chain amino groups of K via Bis-NHS-PEG9]	about 40%
0.01 to 0.05 moleculesoffgfr/onemoleculeofthecyclicpeptide	0.01 to 0.05 moleculesoffgfr/onemoleculeofthecyclicpeptide	0.01 to 0.05 moleculesoffgfr/onemoleculeofthecyclicpeptide	≥ 0.05 moleculesoffgfr/onemoleculeofthecyclicpeptide	≥ 0.7 moleculesofthecyclicpeptide/onemoleculeoffgfr	YCEENYLDPEQYQYFIYFK(COCH2)YKKK (thioether 2-19, chemically synthesized) [cyclic peptide SEQ ID NO: 450]	
